Reference: patent US20140072613A1 (published 2014)

T1: MST2(h) (human, UniProt Q13188 1-491)
T1 sequence (looked up): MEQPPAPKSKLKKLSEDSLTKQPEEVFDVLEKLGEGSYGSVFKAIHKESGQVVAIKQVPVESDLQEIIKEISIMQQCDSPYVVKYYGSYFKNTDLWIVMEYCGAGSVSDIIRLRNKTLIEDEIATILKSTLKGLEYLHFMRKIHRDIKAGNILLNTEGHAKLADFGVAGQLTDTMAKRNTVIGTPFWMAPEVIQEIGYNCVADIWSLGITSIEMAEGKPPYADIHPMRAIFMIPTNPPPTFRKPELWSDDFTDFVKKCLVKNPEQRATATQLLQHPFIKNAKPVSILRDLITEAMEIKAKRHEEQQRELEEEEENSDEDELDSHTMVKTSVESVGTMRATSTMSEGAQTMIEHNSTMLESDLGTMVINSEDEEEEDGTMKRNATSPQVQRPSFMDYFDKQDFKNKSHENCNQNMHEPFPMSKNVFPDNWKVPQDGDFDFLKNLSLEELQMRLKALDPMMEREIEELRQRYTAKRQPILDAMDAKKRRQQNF

T2: BrSK1(h) (human, UniProt Q8TDC3 1-778, limits assumed)
T2 sequence (looked up): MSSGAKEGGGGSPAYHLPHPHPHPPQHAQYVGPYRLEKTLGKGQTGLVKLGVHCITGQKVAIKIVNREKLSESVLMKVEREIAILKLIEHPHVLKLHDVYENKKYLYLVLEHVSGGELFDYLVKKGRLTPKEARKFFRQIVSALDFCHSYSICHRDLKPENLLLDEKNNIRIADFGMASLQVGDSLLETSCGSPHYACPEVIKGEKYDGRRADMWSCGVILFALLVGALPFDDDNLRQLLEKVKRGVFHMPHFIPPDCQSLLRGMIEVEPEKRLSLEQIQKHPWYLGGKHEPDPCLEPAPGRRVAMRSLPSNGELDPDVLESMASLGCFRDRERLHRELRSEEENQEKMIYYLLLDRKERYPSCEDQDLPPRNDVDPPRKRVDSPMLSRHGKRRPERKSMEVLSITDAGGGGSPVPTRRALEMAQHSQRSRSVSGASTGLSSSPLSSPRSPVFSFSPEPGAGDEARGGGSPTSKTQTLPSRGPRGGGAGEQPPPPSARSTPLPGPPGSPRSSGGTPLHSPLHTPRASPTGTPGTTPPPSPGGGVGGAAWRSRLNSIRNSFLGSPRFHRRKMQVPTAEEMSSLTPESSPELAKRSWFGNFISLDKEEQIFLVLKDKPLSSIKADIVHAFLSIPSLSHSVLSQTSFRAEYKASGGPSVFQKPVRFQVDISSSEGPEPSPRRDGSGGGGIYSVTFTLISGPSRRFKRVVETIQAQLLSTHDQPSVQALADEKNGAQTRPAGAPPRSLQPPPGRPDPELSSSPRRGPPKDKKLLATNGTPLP

T3: NLK(h) (human, UniProt Q9UBE8 1-527, limits assumed)
T3 sequence (looked up): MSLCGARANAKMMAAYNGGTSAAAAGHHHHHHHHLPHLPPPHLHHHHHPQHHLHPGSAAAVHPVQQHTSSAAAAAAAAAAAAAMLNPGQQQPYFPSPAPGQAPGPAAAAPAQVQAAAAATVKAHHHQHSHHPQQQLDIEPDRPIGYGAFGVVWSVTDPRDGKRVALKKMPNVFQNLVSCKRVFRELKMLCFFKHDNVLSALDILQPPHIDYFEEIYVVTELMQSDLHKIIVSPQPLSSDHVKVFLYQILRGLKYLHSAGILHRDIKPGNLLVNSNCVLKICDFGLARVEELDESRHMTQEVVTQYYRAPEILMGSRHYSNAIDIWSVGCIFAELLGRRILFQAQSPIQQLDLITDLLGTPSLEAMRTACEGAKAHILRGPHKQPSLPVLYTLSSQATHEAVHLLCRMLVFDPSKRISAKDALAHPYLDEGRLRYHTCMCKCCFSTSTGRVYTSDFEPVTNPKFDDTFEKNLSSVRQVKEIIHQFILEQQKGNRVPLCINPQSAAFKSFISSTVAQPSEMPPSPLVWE

T4: Rse(h) (human, UniProt Q06418 451-890, limits assumed)
T4 sequence (looked up): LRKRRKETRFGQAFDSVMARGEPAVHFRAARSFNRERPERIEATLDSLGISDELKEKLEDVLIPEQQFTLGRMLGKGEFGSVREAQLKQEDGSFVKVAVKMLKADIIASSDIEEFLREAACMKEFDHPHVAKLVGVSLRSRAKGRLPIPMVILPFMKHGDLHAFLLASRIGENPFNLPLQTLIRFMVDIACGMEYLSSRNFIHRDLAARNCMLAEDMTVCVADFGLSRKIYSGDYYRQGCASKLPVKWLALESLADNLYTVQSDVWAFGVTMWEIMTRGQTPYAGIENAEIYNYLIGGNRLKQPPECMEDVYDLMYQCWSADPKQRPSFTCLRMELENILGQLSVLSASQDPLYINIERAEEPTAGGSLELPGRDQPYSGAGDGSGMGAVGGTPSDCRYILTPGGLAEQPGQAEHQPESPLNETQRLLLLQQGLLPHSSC


Columns and labels:
Assay in all cases: cell-based or functional assay
ROCK-II(h) = ROCK-II(h) (human, UniProt O75116 11-552, limits assumed)
Fgr(h) = Fgr(h) (human, UniProt P09769 1-529)
Pim-3(h) = Pim-3(h) (human, UniProt Q86V86 1-326)
MST2(h) = target: T1, MST2(h)
BrSK1(h) = target: T2, BrSK1(h)
Fer(h) = Fer(h) (human, UniProt P16591 541-822, limits assumed)
DAPK1(h) = DAPK1(h) (human, UniProt P53355 1-363, limits assumed)
NLK(h) = target: T3, NLK(h)
Rse(h) = target: T4, Rse(h)

Chain of Fer(h) (P16591 541-822 limits assumed): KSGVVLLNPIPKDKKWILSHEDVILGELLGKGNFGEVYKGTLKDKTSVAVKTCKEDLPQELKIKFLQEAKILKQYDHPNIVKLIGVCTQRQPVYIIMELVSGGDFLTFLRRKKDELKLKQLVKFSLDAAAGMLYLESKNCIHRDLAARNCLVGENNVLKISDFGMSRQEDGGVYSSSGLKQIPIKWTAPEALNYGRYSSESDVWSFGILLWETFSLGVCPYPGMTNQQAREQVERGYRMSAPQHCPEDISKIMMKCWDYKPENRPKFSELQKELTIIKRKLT
Chain of DAPK1(h) (P53355 1-363 limits assumed): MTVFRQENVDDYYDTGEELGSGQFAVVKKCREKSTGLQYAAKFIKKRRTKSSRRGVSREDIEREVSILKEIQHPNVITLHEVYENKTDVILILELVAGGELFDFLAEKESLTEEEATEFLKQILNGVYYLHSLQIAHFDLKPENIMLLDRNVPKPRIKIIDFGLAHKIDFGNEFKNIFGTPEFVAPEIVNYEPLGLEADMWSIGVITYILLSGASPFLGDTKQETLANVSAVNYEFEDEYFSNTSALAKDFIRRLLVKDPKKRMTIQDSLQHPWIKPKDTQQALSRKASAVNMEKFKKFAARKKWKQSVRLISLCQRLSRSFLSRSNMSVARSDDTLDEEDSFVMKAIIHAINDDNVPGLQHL
Chain of ROCK-II(h) (O75116 11-552 limits assumed): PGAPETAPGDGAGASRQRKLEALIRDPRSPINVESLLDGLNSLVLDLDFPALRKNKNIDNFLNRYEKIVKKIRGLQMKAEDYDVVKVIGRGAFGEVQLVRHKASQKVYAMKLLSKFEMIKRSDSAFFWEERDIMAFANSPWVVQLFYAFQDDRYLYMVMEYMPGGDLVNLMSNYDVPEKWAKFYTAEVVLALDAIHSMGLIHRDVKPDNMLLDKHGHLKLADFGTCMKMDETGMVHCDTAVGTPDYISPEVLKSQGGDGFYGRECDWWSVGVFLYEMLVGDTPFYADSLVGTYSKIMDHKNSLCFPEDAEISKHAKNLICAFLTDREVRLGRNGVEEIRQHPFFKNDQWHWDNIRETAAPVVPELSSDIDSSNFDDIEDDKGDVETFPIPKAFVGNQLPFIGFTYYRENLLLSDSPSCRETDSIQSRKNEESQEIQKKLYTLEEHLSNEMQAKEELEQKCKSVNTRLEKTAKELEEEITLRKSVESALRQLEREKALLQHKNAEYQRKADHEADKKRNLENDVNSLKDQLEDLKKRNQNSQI

Row | Binder | % activity, 100 µM (ROCK-II(h)) [%] | % activity, 100 µM (Fgr(h)) [%] | % activity, 100 µM (Pim-3(h)) [%] | % activity, 100 µM (MST2(h)) [%] | % activity, 100 µM (BrSK1(h)) [%] | % activity, 100 µM (Fer(h)) [%] | % activity, 100 µM (DAPK1(h)) [%] | % activity, 100 µM (NLK(h)) [%] | % activity, 100 µM (Rse(h)) [%]
1 | FAKLAARLYRKALARQLGVAA [MMI-0300] | 74 | 60 | 80 | 19 | 67 | 130 | 46 | 87 | 88
2 | KAFAKLAARLYRKALARQLGVAA [MMI-0400] | 77 | 47 | 80 | 11 | 76 | 108 | 36 | 90 | 89
